Assay results: PMC9700324, “Selection-free endogenous tagging of cell lines by bicistronic co-expression of the surface antigen NGFR” (MethodsX, 2022)
One block for each binder: values may come before it.

What was measured:
[1] = biological target: T1, nLAP-tagged WDR59 (WD Repeat Domain 59), endogenously tagged (human (endogenous in HEK293T)), Q6PJI9; assay: co-IP; nLAP-tagged WDR59 precipitated from 1,000-3,000 µg lysate protein with GFP-Trap magnetic agarose beads (GFP-specific nanobodies) overnight at 4°C; CoIP buffer (10 mM Tris-HCl pH 8, 150 mM NaCl, 5 mM EDTA, 0.5% Triton X-100, 60 mM octyl-β-D-glucopyranoside); 5 washes; partners detected by Western blot; cells untreated, amino acid-starved 16 h with or without 60 min stimulation with all amino acids or leucine, …; settings: remark: other sources report otherwise
T1 chain: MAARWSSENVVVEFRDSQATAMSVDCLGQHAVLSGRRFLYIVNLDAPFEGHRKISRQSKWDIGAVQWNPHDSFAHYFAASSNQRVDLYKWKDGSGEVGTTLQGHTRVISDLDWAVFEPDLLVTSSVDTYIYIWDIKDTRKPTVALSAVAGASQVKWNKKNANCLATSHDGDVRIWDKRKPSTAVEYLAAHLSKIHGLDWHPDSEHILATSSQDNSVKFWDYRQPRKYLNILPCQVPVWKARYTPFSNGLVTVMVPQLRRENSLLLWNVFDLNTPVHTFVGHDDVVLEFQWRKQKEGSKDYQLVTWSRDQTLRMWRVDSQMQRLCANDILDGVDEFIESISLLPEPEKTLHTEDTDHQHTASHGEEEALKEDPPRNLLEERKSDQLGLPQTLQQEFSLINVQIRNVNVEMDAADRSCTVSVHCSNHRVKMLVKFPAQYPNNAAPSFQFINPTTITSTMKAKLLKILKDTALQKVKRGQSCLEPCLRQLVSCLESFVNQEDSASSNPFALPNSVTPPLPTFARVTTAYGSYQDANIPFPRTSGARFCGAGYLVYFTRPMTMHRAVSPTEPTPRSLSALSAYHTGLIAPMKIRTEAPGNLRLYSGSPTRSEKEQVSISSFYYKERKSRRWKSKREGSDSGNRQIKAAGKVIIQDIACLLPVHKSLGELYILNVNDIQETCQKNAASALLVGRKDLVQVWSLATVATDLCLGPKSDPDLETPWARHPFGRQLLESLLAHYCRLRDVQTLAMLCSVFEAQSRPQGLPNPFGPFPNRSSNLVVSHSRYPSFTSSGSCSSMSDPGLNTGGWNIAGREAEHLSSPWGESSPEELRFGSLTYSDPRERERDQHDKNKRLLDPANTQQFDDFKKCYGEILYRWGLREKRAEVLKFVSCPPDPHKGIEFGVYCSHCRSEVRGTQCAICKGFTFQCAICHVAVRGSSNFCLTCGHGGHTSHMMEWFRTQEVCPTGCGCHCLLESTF

[2] = biological target: T2, nLAP-tagged WDR59 (WD Repeat Domain 59), endogenously tagged (human (endogenous in HEK293T), UniProt Q6PJI9 1-974); assay: as above; settings: partners not purified
T2 construct: WDR59 (WD Repeat Domain 59), subunit of GATOR2, human; NGFRETD is split off at the P2A site and is not part of this chain; The tag was inserted in the 5'UTR (donor NGFR "-2"); they are printed only as DNA; also called WDR59-GFP; nLAP-WDR59; source: endogenously tagged allele in HEK (Lenti-X 293T) spCas9+ cells, WDR59-NGFRETD-nLAP clone D5, in lysate; not shown: EGFP, N-terminal, kept
T2 sequence (looked up): T1 chain

B1: NPRL3 (Nitrogen Permease Regulator 3-Like Protein), Q12980 1-569 (natural protein)
chain: MRDNTSPISVILVSSGSRGNKLLFRYPFQRSQEHPASQTSKPRSRYAASNTGDHADEQDGDSRFSDVILATILATKSEMCGQKFELKIDNVRFVGHPTLLQHALGQISKTDPSPKREAPTMILFNVVFALRANADPSVINCLHNLSRRIATVLQHEERRCQYLTREAKLILALQDEVSAMADGNEGPQSPFHHILPKCKLARDLKEAYDSLCTSGVVRLHINSWLEVSFCLPHKIHYAASSLIPPEAIERSLKAIRPYHALLLLSDEKSLLGELPIDCSPALVRVIKTTSAVKNLQQLAQDADLALLQVFQLAAHLVYWGKAIIIYPLCENNVYMLSPNASVCLYSPLAEQFSHQFPSHDLPSVLAKFSLPVSLSEFRNPLAPAVQETQLIQMVVWMLQRRLLIQLHTYVCLMASPSEEEPRPREDDVPFTARVGGRSLSTPNALSFGSPTSSDDMTLTSPSMDNSSAELLPSGDSPLNQRMTENLLASLSEHERAAILSVPAAQNPEDLRMFARLLHYFRGRHHLEEIMYNENTRRSQLLMLFDKFRSVLVVTTHEDPVIAVFQALLP
co-IP signal after leucine restimulation, fold of the leucine-starved sample [1]: 2 fold
co-IP signal after restimulation with all amino acids, fold of the amino acid-starved sample (normalised to WDR59-GFP) [1]: 1.2 fold
co-IP signal after restimulation with leucine alone, fold of the amino acid-starved sample (normalised to WDR59-GFP) [1]: 1.89 fold

B4: MIOS (Meiosis Regulator For Oocyte Development) (natural protein, human (endogenous in HEK293T), UniProt Q9NXC5 1-875, looked up)
chain: MSGTKPDILWAPHHVDRFVVCDSELSLYHVESTVNSELKAGSLRLSEDSAATLLSINSDTPYMKCVAWYLNYDPECLLAVGQANGRVVLTSLGQDHNSKFKDLIGKEFVPKHARQCNTLAWNPLDSNWLAAGLDKHRADFSVLIWDICSKYTPDIVPMEKVKLSAGETETTLLVTKPLYELGQNDACLSLCWLPRDQKLLLAGMHRNLAIFDLRNTSQKMFVNTKAVQGVTVDPYFHDRVASFYEGQVAIWDLRKFEKPVLTLTEQPKPLTKVAWCPTRTGLLATLTRDSNIIRLYDMQHTPTPIGDETEPTIIERSVQPCDNYIASFAWHPTSQNRMIVVTPNRTMSDFTVFERISLAWSPITSLMWACGRHLYECTEEENDNSLEKDIATKMRLRALSRYGLDTEQVWRNHILAGNEDPQLKSLWYTLHFMKQYTEDMDQKSPGNKGSLVYAGIKSIVKSSLGMVESSRHNWSGLDKQSDIQNLNEERILALQLCGWIKKGTDVDVGPFLNSLVQEGEWERAAAVALFNLDIRRAIQILNEGASSEKGDLNLNVVAMALSGYTDEKNSLWREMCSTLRLQLNNPYLCVMFAFLTSETGSYDGVLYENKVAVRDRVAFACKFLSDTQLNRYIEKLTNEMKEAGNLEGILLTGLTKDGVDLMESYVDRTGDVQTASYCMLQGSPLDVLKDERVQYWIENYRNLLDAWRFWHKRAEFDIHRSKLDPSSKPLAQVFVSCNFCGKSISYSCSAVPHQGRGFSQYGVSGSPTKSKVTSCPGCRKPLPRCALCLINMGTPVSSCPGGTKSDEKVDLSKDKKLAQFNNWFTWCHNCRHGGHAGHMLSWFRDHAECPVSACTCKCMQLDTTGNLVPAETVQP
notes: MIOS (Meiosis Regulator For Oocyte Development), subunit of GATOR2, human, endogenous; also called GATOR2 subunit MIOS; source: endogenous, HEK (Lenti-X 293T) spCas9+ WDR59-NGFRETD-nLAP clone D5 lysate
co-IP signal after leucine restimulation, fold of the leucine-starved sample [2]: ~2 fold
co-IP signal after restimulation with all amino acids, percent of the amino acid-starved sample (normalised to WDR59-GFP) [2]: 85%

Further lines, results first:

co-IP signal after leucine restimulation, fold of the leucine-starved sample [2]: ~2 fold
co-IP signal after restimulation with all amino acids, percent of the amino acid-starved sample (normalised to WDR59-GFP) [2]: 82%
B2: Sestrin-2 (SESN2) (natural protein, human (endogenous in HEK293T), UniProt P58004 1-480, looked up)
chain: MIVADSECRAELKDYLRFAPGGVGDSGPGEEQRESRARRGPRGPSAFIPVEEVLREGAESLEQHLGLEALMSSGRVDNLAVVMGLHPDYFTSFWRLHYLLLHTDGPLASSWRHYIAIMAAARHQCSYLVGSHMAEFLQTGGDPEWLLGLHRAPEKLRKLSEINKLLAHRPWLITKEHIQALLKTGEHTWSLAELIQALVLLTHCHSLSSFVFGCGILPEGDADGSPAPQAPTPPSEQSSPPSRDPLNNSGGFESARDVEALMERMQQLQESLLRDEGTSQEEMESRFELEKSESLLVTPSADILEPSPHPDMLCFVEDPTFGYEDFTRRGAQAPPTFRAQDYTWEDHGYSLIQRLYPEGGQLLDEKFQAAYSLTYNTIAMHSGVDTSVLRRAIWNYIHCVFGIRYDDYDYGEVNQLLERNLKVYIKTVACYPEKTTRRMYNLFWRHFRHSEKVHVNLLLLEARMQAALLYALRAITRYMT
notes: Sestrin-2 (SESN2), leucine-sensing protein, human, endogenous; source: endogenous, HEK (Lenti-X 293T) spCas9+ WDR59-NGFRETD-nLAP clone D5 lysate

co-IP signal after leucine restimulation, fold of the leucine-starved sample [2]: ~2 fold
co-IP signal after restimulation with all amino acids, percent of the amino acid-starved sample (normalised to WDR59-GFP) [2]: 71%
B3: WDR24 (WD Repeat Domain 24) (natural protein, human (endogenous in HEK293T), UniProt Q96S15 1-790, looked up)
chain: MEKMSRVTTALGGSVLTGRTMHCHLDAPANAISVCRDAAQVVVAGRSIFKIYAIEEEQFVEKLNLRVGRKPSLNLSCADVVWHQMDENLLATAATNGVVVTWNLGRPSRNKQDQLFTEHKRTVNKVCFHPTEAHVLLSGSQDGFMKCFDLRRKDSVSTFSGQSESVRDVQFSIRDYFTFASTFENGNVQLWDIRRPDRCERMFTAHNGPVFCCDWHPEDRGWLATGGRDKMVKVWDMTTHRAKEMHCVQTIASVARVKWRPECRHHLATCSMMVDHNIYVWDVRRPFVPAAMFEEHRDVTTGIAWRHPHDPSFLLSGSKDSSLCQHLFRDASQPVERANPEGLCYGLFGDLAFAAKESLVAAESGRKPYTGDRRHPIFFKRKLDPAEPFAGLASSALSVFETEPGGGGMRWFVDTAERYALAGRPLAELCDHNAKVARELGRNQVAQTWTMLRIIYCSPGLVPTANLNHSVGKGGSCGLPLMNSFNLKDMAPGLGSETRLDRSKGDARSDTVLLDSSATLITNEDNEETEGSDVPADYLLGDVEGEEDELYLLDPEHAHPEDPECVLPQEAFPLRHEIVDTPPGPEHLQDKADSPHVSGSEADVASLAPVDSSFSLLSVSHALYDSRLPPDFFGVLVRDMLHFYAEQGDVQMAVSVLIVLGERVRKDIDEQTQEHWYTSYIDLLQRFRLWNVSNEVVKLSTSRAVSCLNQASTTLHVNCSHCKRPMSSRGWVCDRCHRCASMCAVCHHVVKGLFVWCQGCSHGGHLQHIMKWLEGSSHCPAGCGHLCEYS
notes: WDR24 (WD Repeat Domain 24), subunit of GATOR2, human, endogenous; also called GATOR2 subunit WDR24; source: endogenous, HEK (Lenti-X 293T) spCas9+ WDR59-NGFRETD-nLAP clone D5 lysate
